The values that follow come from US20240190989A1 (BEIGENE SWITZERLAND, published 2024).

Substitutions are numbered along the chain they refer to. Numbers in names are those of the source.

The labels stand for the following.
B1: Format A BGA-7746 (bispecific antibody, human IgG1, kappa)
heavy: QVQLVQSGAEVKKPGASVKVSCKASGYIFTSYYLHWVRQAPGQGLEWIGYINPQTGKTSYAQKFQGRVTMTRDTSTSTVYMELSSLRSEDTAVYYCAREYGNYNYPLDYWGQGTLVTVSSASTKGPSVFPLAPSSKSTSGGTAALGCLVKDYFPEPVTVSWNSGALTSGVHTFPAVLQSSGLYSLSSVVTVPSSSLGTQTYICNVNHKPSNTKVDKKVEPKSCDKTHTCPPCPAPPAAGPSVFLFPPKPKDTLMISRTPEVTCVVVDVSHEDPEVKFNWYVDGVEVHNAKTKPREEQYNSTYRVVSVLTVLHQDWLNGKEYKCKVSNKALAAPIEKTISKAKGQPREPQVYTLPPSREEMTKNQVSLTCLVKGFYPSDIAVEWESNGQPENNYKTTPPVLDSDGSFFLYSKLTVDKSRWQQGNVFSCSVMHEALHNHYTQKSLSLSPGKGGGGSEVQLLESGGGLVQPGGSLRLSCAASGFTVSAEDVGWVRQAPGKGLEWVSAILDFGGSTYYAESVKGRFTISRDNAKNTLYLQMSSLRAEDTAVYYCARVVYHAGGGVTFDTRGQGTQVTVSS
light: DIQMTQSPSSLSASVGDRVTITCRASENQYGYLAWYQQKPGKVPKLLIYNYKNLVEGVPSRFSGSGSGTDFTLTISSLQPEDVATYYCQHHLGTPYTFGQGTKVEIKRTVAAPSVFIFPPSDEQLKSGTASVVCLLNNFYPREAKVQWKVDNALQSGNSQESVTEQDSKDSTYSLSSTLTLSKADYEKHKVYACEVTHQGLSSPVTKSFNRGEC
B2: Format A BGA-5385 (bispecific antibody, human IgG1, kappa)
heavy: B1 heavy with V483L, F508H, V554I
light: B1 light
B3: Format A BGA-8425 (bispecific antibody, human IgG1, kappa)
heavy: B1 heavy with V483L, F508S, F563Y, T565Y
light: B1 light
B4: Format A BGA-3285 (bispecific antibody, human IgG1, kappa)
heavy: B1 heavy with V483I
light: B1 light
B5: Format A BGA-9468 (bispecific antibody, human IgG1, kappa)
heavy: B1 heavy with F508S, A557S, T565L
light: B1 light
B6: Format A BGA-3953 (bispecific antibody, human IgG1, kappa)
heavy: B1 heavy with F508S, V553I
light: B1 light
B7: Format A BGA-9442 (bispecific antibody, human IgG1, kappa)
heavy: B1 heavy with V483I, F508S, V553Y, T565L
light: B1 light
B8: Format A BGA-7916 (bispecific antibody, human IgG1, kappa)
heavy: B1 heavy with F508S, F563Y, T565Y
light: B1 light
B9: BGA-3285-mutFc (Fc fusion)
chain: EVQLLESGGGLVQPGGSLRLSCAASGFTISAEDVGWVRQAPGKGLEWVSAILDFGGSTYYAESVKGRFTISRDNAKNTLYLQMSSLRAEDTAVYYCARVVYHAGGGVTFDTRGQGTQVTVSSGGGGSDKTHTCPPCPAPPAAGPSVFLFPPKPKDTLMISRTPEVTCVVVDVSHEDPEVKFNWYVDGVEVHNAKTKPREEQYNSTYRVVSVLTVLHQDWLNGKEYKCKVSNKALAAPIEKTISKAKGQPREPQVYTLPPSREEMTKNQVSLTCLVKGFYPSDIAVEWESNGQPENNYKTTPPVLDSDGSFFLYSKLTVDKSRWQQGNVFSCSVMHEALHNHYTQKSLSLSPGK
B10: BGA-5385-mutFc (Fc fusion)
chain: B9 chain with I29L, F54H, V100I, F109Y, T111Y
B11: BGA-3849-mutFc (Fc fusion)
chain: B9 chain with I29L, A31H, F54S, V99Y
B12: BGA-7916-mutFc (Fc fusion)
chain: B9 chain with I29V, F54S, F109Y
B13: BGA-4988-mutFc (Fc fusion)
chain: B9 chain with I29V, F54R, F109Y
B14: BGA-3953-mutFc (Fc fusion)
chain: B9 chain with I29V, F54S, V99I
B15: BGA-9442-mutFc (Fc fusion)
chain: B9 chain with F54S, V99Y, T111L
B16: BGA-7746-mutFc (Fc fusion)
chain: B9 chain with I29V
B17: BGA-8425-mutFc (Fc fusion)
chain: B9 chain with I29L, F54S, F109Y, T111Y
B18: BGA-9468-mutFc (Fc fusion)
chain: B9 chain with I29V, F54S, A103S, T111L
B19: BE-562 (E-muFc-BGA-5623) (bispecific antibody)
heavy: EVQLLESGGGLVQPGGSLRLSCAASGFTVSAEDVGWVRQAPGKGLEWVSAILDKGGSTYYAESVKGRFTISRDNAKNTLYLQMSSLRAEDTAVYYCARIVYHAGGGVTFDTRGQGTQVTVSSEPKSSDKTHTCPPCPAPPAAGPSVFLFPPKPKDTLMISRTPEVTCVVVDVSHEDPEVKFNWYVDGVEVHNAKTKPREEQYNSTYRVVSVLTVLHQDWLNGKEYKCKVSNKALAAPIEKTISKAKGQPREPQVYTLPPSREEMTKNQVSLTCLVKGFYPSDIAVEWESNGQPENNYKTTPPVLDSDGSFFLYSKLTVDKSRWQQGNVFSCSVMHEALHNHYTQKSLSLSPGKGGGGSQVQLVQSGAEVKKPGASVKVSCKASGYIFTSYYLHWVRQAPGQGLEWIGYINPQTGKTSYAQKFQGRVTMTRDTSTSTVYMELSSLRSEDTAVYYCAREYGNYNYPLDYWGQGTLVTVSSASTKGPSVFPLAPSSKSTSGGTAALGCLVKDYFPEPVTVSWNSGALTSGVHTFPAVLQSSGLYSLSSVVTVPSSSLGTQTYICNVNHKPSNTKVDKKVEPKSCD
light: B1 light
B20: BE-718 (A-BGA-5623-BGA-5623) (bispecific antibody, human IgG1, kappa)
heavy: QVQLVQSGAEVKKPGASVKVSCKASGYIFTSYYLHWVRQAPGQGLEWIGYINPQTGKTSYAQKFQGRVTMTRDTSTSTVYMELSSLRSEDTAVYYCAREYGNYNYPLDYWGQGTLVTVSSASTKGPSVFPLAPSSKSTSGGTAALGCLVKDYFPEPVTVSWNSGALTSGVHTFPAVLQSSGLYSLSSVVTVPSSSLGTQTYICNVNHKPSNTKVDKKVEPKSCDKTHTCPPCPAPPAAGPSVFLFPPKPKDTLMISRTPEVTCVVVDVSHEDPEVKFNWYVDGVEVHNAKTKPREEQYNSTYRVVSVLTVLHQDWLNGKEYKCKVSNKALAAPIEKTISKAKGQPREPQVYTLPPSREEMTKNQVSLTCLVKGFYPSDIAVEWESNGQPENNYKTTPPVLDSDGSFFLYSKLTVDKSRWQQGNVFSCSVMHEALHNHYTQKSLSLSPGKGGGGSEVQLLESGGGLVQPGGSLRLSCAASGFTVSAEDVGWVRQAPGKGLEWVSAILDKGGSTYYAESVKGRFTISRDNAKNTLYLQMSSLRAEDTAVYYCARIVYHAGGGVTFDTRGQGTQVTVSSGGGGSEVQLLESGGGLVQPGGSLRLSCAASGFTVSAEDVGWVRQAPGKGLEWVSAILDKGGSTYYAESVKGRFTISRDNAKNTLYLQMSSLRAEDTAVYYCARIVYHAGGGVTFDTRGQGTQVTVSS
light: B1 light
B21: BE-740 (A-IgG1-BGA-5623) (bispecific antibody)
heavy: not shown
light: B1 light
B22: BE-942 (ZW 1+1) (bispecific antibody, human IgG1, L234A L235A)
heavy: QVQLVQSGAEVKKPGASVKVSCKASGYIFTSYYLHWVRQAPGQGLEWIGYINPQTGKTSYAQKFQGRVTMTRDTSTSTVYMELSSLRSEDTAVYYCAREYGNYNYPLDYWGQGTLVTVSSASTKGPSVFPLAPSSKSTSGGTAWLGCEVTDYFPEPVTVSWNSGALTSGVHTFPAVLESSGLYSLSSVVTVPSSSLGTQTYICNVNHKPSNTKVDKKVEPKSCDKTHTCPPCPAPEAAGGPSVFLFPPKPKDTLMISRTPEVTCVVVSVSHEDPEVKFNWYVDGVEVHNAKTKPREEQYNSTYRVVSVLTVLHQDWLNGKEYKCKVSNKALPAPIEKTISKAKGQPREPQVYVLPPSRDELTKNQVSLLCLVKGFYPSDIAVEWESNGQPENNYLTWPPVLDSDGSFFLYSKLTVDKSRWQQGNVFSCSVMHEALHNHYTQKSLSLSPGK
light: B1 light with F116A, Q124R, L135V, T178R
chain: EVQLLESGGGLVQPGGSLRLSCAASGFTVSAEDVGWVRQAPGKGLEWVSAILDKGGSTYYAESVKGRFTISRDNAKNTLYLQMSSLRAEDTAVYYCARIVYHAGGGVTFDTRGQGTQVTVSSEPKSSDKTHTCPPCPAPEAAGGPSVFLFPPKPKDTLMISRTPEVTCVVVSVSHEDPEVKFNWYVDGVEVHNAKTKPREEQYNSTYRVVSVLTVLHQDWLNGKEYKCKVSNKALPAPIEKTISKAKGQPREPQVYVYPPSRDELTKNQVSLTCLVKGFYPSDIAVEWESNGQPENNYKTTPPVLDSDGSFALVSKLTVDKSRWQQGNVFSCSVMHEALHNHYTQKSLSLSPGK
B23: BE-244 (A-(G4S)3-BGA-5623) (bispecific antibody, human IgG1, kappa)
heavy: QVQLVQSGAEVKKPGASVKVSCKASGYIFTSYYLHWVRQAPGQGLEWIGYINPQTGKTSYAQKFQGRVTMTRDTSTSTVYMELSSLRSEDTAVYYCAREYGNYNYPLDYWGQGTLVTVSSASTKGPSVFPLAPSSKSTSGGTAALGCLVKDYFPEPVTVSWNSGALTSGVHTFPAVLQSSGLYSLSSVVTVPSSSLGTQTYICNVNHKPSNTKVDKKVEPKSCDKTHTCPPCPAPPAAGPSVFLFPPKPKDTLMISRTPEVTCVVVDVSHEDPEVKFNWYVDGVEVHNAKTKPREEQYNSTYRVVSVLTVLHQDWLNGKEYKCKVSNKALAAPIEKTISKAKGQPREPQVYTLPPSREEMTKNQVSLTCLVKGFYPSDIAVEWESNGQPENNYKTTPPVLDSDGSFFLYSKLTVDKSRWQQGNVFSCSVMHEALHNHYTQKSLSLSPGKGGGGSGGGGSGGGGSEVQLLESGGGLVQPGGSLRLSCAASGFTVSAEDVGWVRQAPGKGLEWVSAILDKGGSTYYAESVKGRFTISRDNAKNTLYLQMSSLRAEDTAVYYCARIVYHAGGGVTFDTRGQGTQVTVSS
light: B1 light
B24: BE-375 (E-IgG1-BGA-5623) (bispecific antibody)
heavy: not shown
light: B1 light

The target in the first experiment is T1, human CD137 ECD-mIgG2a (human).
T1 construct: ECD 24-183 of huCD137 fused to mouse IgG2a Fc; also called huCD137-mIgG2a; huCD137
T1 sequence (chain, as listed by the source limits assumed): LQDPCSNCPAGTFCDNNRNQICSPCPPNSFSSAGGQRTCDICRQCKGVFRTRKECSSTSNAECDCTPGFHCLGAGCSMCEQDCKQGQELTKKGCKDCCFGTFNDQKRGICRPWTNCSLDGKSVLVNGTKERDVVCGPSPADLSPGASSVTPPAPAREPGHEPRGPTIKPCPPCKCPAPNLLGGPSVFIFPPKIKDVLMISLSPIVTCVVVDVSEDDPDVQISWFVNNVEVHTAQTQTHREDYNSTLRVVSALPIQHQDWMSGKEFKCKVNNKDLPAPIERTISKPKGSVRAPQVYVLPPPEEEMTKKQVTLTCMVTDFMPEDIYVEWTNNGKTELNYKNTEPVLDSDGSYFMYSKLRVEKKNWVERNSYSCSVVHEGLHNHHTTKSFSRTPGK
Nature of the experiment: SPR, A-CEAxCD137 format.
Procedure: (§1) Characterization of anti-huCD137 VH domain antibodies were made by SPR assays using BIAcore™ T-200 (GE Life Sciences). Briefly, anti-human IgG (Fc) antibody was immobilized on an activated CM5 biosensor chip (Cat.: BR100839, GE Life Sciences). Anti-huCD137 domain antibodies were flowed over the chip surface and captured by anti-human IgG (Fc) antibody. […] The equilibrium dissociation constant (KD) was calculated as the ratio koff/kₒₙ.
(§2) Affinity comparison on CD137 affinity matured variants was made by SPR assays using BIAcore™ T-200 (GE Life Sciences) and flow cytometry as described.
One may read the Kd as a measure of binding affinity in units of concentration. In the case of B1, the Kd was 245 nM. B2 yielded a Kd of 154 nM. On to B3, for which the Kd came out at 189 nM. Still for that read-out and setting: for B4 the value was 798 nM. On the same count and under the same terms, for B5 the value was 873 nM; for B6, 115 nM; for B7, 164 nM. On to B8, for which the affinity, expressed as Kd, was 203 nM.

Another experiment concerns the target T1, human CD137 ECD-mIgG2a. Nature of the experiment: SPR, Fc-fusion VH captured. On the technique in general: In SPR one partner is held on a chip, and binding of the other changes the refractive index at the surface.
Procedure: as §1, §2
Regarding B9, the Kd was 186 nM. This lies in the sub-micromolar range. Same read-out and setting: for B10 the value was 100 nM; for B11, 76.3 nM. Same read-out and setting: for B12 the value was 87.7 nM; for B13, 1030 nM.

B14 displayed a Kd of 48.3 nM.

B15 showed a Kd of 151 nM. With B16, the Kd stood at 193 nM. On the same count and under the same terms, for B17 the value was 93.4 nM; for B18, 190 nM.

For a further experiment, the target named is full-length human CD137 on cells (Hut78/huCD137, HEK293 transfectants, JK-NFKB-CD137) (human, UniProt Q07011 24-255). Nature of the experiment: cell-based or functional assay.
full-length human CD137 on cells (Hut78/huCD137, HEK293 transfectants, JK-NFKB-CD137), sequence (Q07011 24-255 limits assumed): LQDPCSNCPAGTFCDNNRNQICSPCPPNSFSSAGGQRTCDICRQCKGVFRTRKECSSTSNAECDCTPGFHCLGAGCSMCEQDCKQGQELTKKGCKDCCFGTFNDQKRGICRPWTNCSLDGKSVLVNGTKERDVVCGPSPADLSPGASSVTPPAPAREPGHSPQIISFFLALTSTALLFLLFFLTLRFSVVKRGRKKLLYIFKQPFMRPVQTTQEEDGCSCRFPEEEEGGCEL
As to B19, the “Functional assay EC50 (PBMC cytokine release, in vitro CD137 activation)” value (shortened to “Functional assay EC50”) was determined as 4.69 µg/mL. Regarding B20, the “Functional assay EC50” value amounted to 0.01 µg/mL. With B21, the “Functional assay EC50” value was found to be 0.17 µg/mL.

For B22, the “Functional assay EC50” value amounted to 25.1 µg/mL. As for B23, the “Functional assay EC50” value was 0.18 µg/mL.

On to B24, for which the “Functional assay EC50” value is 1.76 µg/mL.
